Reference: paper PMC12312386, “Multiple transactivation domains of EZH2 bind to the TAZ2 domain of p300 and stimulate the acetyltransferase function of p300” (Biochemical Journal, 2025)
pKd: −log10 of the molar value.

Biological target: p300 TAZ2 domain with 6xHis tag (p300_(TAZ2)-6×His) (human) (UniProt Q09472)
Assay: MST; p300_(TAZ2)-6×His labelled with RED-tris-NTA, constant at 10 nM; peptide varied by serial dilution; 25 mM Tris pH 7.5, 150 mM NaCl, 2.5 mM DTT; 1:1 stoichiometry fit

pKd	Substance
6.28	EZH2_(TAD1) peptide (aa 142-154 of EZH2) (from UniProt Q15910 142-154)
6.51	EZH2_(TAD2) peptide (aa 167-185 of EZH2) (from UniProt Q15910 167-185)
6.28	EZH2_(TAD3) peptide (aa 220-231 of EZH2) (from UniProt Q15910 220-231)
